Test results taken from publication PMC10992996, “Human CRB1 and CRB2 form homo- and heteromeric protein complexes in the retina” (Life Science Alliance, 2024).

Target: T1, CRB1-FLAG p.C1181R (human, UniProt P82279 26-1406, p.C1181R)
T1 construct: Made by site-directed mutagenesis of m1; also called CRB1 p.C1181R; CRB1-FLAG MT; source: HEK293T, transfected, in lysate; not shown: Strep-Strep-FLAG, N-terminal, kept
T1 sequence (looked up): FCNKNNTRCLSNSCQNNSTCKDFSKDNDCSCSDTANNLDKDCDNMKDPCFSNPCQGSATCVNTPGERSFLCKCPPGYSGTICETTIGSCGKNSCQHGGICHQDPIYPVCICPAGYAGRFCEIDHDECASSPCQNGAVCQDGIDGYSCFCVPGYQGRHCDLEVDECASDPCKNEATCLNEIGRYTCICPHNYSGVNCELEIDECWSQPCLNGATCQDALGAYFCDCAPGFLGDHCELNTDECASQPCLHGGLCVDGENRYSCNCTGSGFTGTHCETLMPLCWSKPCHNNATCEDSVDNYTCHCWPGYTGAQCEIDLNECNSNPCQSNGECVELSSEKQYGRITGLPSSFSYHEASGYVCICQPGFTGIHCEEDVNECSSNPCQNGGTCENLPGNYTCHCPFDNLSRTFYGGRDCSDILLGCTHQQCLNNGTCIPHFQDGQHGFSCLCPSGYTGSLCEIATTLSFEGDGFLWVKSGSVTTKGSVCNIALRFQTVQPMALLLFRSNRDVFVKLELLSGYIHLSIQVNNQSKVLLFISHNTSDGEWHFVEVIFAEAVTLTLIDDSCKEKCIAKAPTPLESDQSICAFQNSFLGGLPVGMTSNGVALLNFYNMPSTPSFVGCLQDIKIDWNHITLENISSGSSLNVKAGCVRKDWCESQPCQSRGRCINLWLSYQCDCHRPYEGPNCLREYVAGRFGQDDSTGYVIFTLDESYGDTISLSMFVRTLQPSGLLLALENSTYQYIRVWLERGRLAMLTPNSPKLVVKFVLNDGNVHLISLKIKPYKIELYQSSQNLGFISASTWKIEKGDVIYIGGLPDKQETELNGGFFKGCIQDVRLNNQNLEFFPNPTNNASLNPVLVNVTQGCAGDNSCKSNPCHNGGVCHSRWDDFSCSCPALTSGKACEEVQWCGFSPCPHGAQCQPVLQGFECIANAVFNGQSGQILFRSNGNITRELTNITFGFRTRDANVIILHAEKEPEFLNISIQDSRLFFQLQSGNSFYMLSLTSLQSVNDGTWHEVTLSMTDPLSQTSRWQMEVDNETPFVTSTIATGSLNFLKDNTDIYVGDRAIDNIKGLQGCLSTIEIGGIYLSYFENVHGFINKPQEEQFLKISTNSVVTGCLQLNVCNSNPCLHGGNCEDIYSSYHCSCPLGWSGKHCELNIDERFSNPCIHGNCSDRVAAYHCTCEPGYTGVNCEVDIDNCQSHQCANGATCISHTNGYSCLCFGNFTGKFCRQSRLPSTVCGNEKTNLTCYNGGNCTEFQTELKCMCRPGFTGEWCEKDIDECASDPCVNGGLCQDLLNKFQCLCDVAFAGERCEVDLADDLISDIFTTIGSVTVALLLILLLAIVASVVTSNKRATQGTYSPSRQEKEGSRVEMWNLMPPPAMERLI
Assay: co-IP; HEK293T cells co-transfected pairwise with a FLAG and an HA construct, 48 h; lysis in TBS (30 mM Tris-HCl pH 7.4, 150 mM NaCl) with 0.5% Nonidet P40; FLAG-IP on ANTI-FLAG M2 Affinity Gel 60-90 min at 4°C, elution with FLAG peptide; Western blot with HA and FLAG antibodies; for mutants HA/FLAG signal in eluates relative to WT, three biological replicates
Conditions: partners not purified

percent reduction of the interaction relative to CRB1 WT: 19%
B1: Human canonical CRB2 (Crumbs homolog 2) (natural protein)
chain: not shown
notes: Crumbs homolog 2, human, cDNA NM_173689; Stood as bait (FLAG copy) and as prey (HA copy) in the pairwise co-IP matrix; each copy carries only one of the two tags; The FLAG copy was the bait of the mass spectrometry pull-downs; also called CRB2-FLAG; CRB2-HA; source: HEK293T, transfected, in lysate (co-IP); HEK293T, transfected, FLAG-IP on beads, washed and purified with 0.01% SDS (retina …)
